Source: IntAct's records for PubMed 9520446

B1: Mitogen-activated protein kinase kinase kinase 14 (Homo sapiens), Q99558 (parent)
chain: MAVMEMACPGAPGSAVGQQKELPKAKEKTPPLGKKQSSVYKLEAVEKSPVFCGKWEILNDVITKGTAKEGSEAGPAAISIIAQAECENSQEFSPTFSERIFIAGSKQYSQSESLDQIPNNVAHATEGKMARVCWKGKRRSKARKKRKKKSSKSLAHAGVALAKPLPRTPEQESCTIPVQEDESPLGAPYVRNTPQFTKPLKEPGLGQLCFKQLGEGLRPALPRSELHKLISPLQCLNHVWKLHHPQDGGPLPLPTHPFPYSRLPHPFPFHPLQPWKPHPLESFLGKLACVDSQKPLPDPHLSKLACVDSPKPLPGPHLEPSCLSRGAHEKFSVEEYLVHALQGSVSSGQAHSLTSLAKTWAARGSRSREPSPKTEDNEGVLLTEKLKPVDYEYREEVHWATHQLRLGRGSFGEVHRMEDKQTGFQCAVKKVRLEVFRAEELMACAGLTSPRIVPLYGAVREGPWVNIFMELLEGGSLGQLVKEQGCLPEDRALYYLGQALEGLEYLHSRRILHGDVKADNVLLSSDGSHAALCDFGHAVCLQPDGLGKSLLTGDYIPGTETHMAPEVVLGRSCDAKVDVWSSCCMMLHMLNGCHPWTQFFRGPLCLKIASEPPPVREIPPSCAPLTAQAIQEGLRKEPIHRVSAAELGGKVNRALQQVGGLKSPWRGEYKEPRHPPPNQANYHQTLHAQPRELSPRAPGPRPAEETTGRAPKLQPPLPPEPPEPNKSPPLTLSKEESGMWEPLPLSSLEPAPARNPSSPERKATVPEQELQQLEIELFLNSLSQPFSLEEQEQILSCLSIDSLSLSDDSEKNPSKASQSSRDTLSSGVHSWSSQAEARSSSWNMVLARGRPTDTPSYFNGVKVQIQSLNGEHLHIREFHRVKVGDIATGISSQIPAAAFSLVTKDGQPVRYDMEVPDSGIDLQCTLAPDGSFAWSWRVKHGQLENRP
partner: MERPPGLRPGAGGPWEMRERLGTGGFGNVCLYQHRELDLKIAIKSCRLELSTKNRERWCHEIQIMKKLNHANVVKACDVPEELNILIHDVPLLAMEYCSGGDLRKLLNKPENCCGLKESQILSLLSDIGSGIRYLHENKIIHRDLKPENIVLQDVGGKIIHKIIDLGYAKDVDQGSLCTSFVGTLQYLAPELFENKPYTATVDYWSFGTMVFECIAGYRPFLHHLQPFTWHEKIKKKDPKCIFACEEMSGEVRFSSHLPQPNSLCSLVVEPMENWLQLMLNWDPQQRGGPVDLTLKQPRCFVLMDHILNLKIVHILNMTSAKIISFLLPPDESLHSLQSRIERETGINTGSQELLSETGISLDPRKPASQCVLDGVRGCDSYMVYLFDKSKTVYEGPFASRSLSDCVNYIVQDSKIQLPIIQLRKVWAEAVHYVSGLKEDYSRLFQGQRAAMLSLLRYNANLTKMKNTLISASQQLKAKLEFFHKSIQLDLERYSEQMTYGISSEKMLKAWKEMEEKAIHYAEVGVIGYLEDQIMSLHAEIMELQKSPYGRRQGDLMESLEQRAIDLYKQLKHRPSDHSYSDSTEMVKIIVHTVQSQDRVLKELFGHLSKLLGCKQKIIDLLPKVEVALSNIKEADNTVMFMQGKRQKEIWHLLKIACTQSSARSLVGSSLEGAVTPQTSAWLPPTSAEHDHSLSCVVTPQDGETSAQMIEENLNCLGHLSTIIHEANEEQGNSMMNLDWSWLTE
B2: Inhibitor of nuclear factor kappa-B kinase subunit alpha (Homo sapiens), O15111 (parent)
chain: B1 partner
B3: Inhibitor of nuclear factor kappa-B kinase subunit beta (Homo sapiens), O14920 (parent)
chain: MSWSPSLTTQTCGAWEMKERLGTGGFGNVIRWHNQETGEQIAIKQCRQELSPRNRERWCLEIQIMRRLTHPNVVAARDVPEGMQNLAPNDLPLLAMEYCQGGDLRKYLNQFENCCGLREGAILTLLSDIASALRYLHENRIIHRDLKPENIVLQQGEQRLIHKIIDLGYAKELDQGSLCTSFVGTLQYLAPELLEQQKYTVTVDYWSFGTLAFECITGFRPFLPNWQPVQWHSKVRQKSEVDIVVSEDLNGTVKFSSSLPYPNNLNSVLAERLEKWLQLMLMWHPRQRGTDPTYGPNGCFKALDDILNLKLVHILNMVTGTIHTYPVTEDESLQSLKARIQQDTGIPEEDQELLQEAGLALIPDKPATQCISDGKLNEGHTLDMDLVFLFDNSKITYETQISPRPQPESVSCILQEPKRNLAFFQLRKVWGQVWHSIQTLKEDCNRLQQGQRAAMMNLLRNNSCLSKMKNSMASMSQQLKAKLDFFKTSIQIDLEKYSEQTEFGITSDKLLLAWREMEQAVELCGRENEVKLLVERMMALQTDIVDLQRSPMGRKQGGTLDDLEEQARELYRRLREKPRDQRTEGDSQEMVRLLLQAIQSFEKKVRVIYTQLSKTVVCKQKALELLPKVEEVVSLMNEDEKTVVRLQEKRQKELWNLLKIACSKVRGPVSGSPDSMNASRLSQPGQLMSQPSTASNSLPEPAKKSEELVAEAHNLCTLLENAIQDTVREQDQSFTALDWSWLQTEEEEHSCLEQAS
B4: Mitogen-activated protein kinase kinase kinase 14 (Homo sapiens), Q99558 (parent)
chain: B1 chain
partner: B3 chain

Variants of: B1
Details: with ikka_human CHUK, O15111

Row | Variant | effect of a mutation on the interaction
1 | K429A;K430A | disrupting interaction

Variants of: B2
Details: with ikba_human NFKBIA

Row | Variant | effect of a mutation on the interaction
2 | S176E | increasing interaction

Variants of: B2
Details: with ikba_human NFKBIA
Remark: another data set of the same source

Row | Variant | effect of a mutation on the interaction
3 | S176A | decreasing interaction
4 | K44A | disrupting interaction

Variants of: B2
Details: with MAP3K14, Q99558

Row | Variant | effect of a mutation on the interaction
5 | S176A | decreasing interaction

Variants of: B3
Details: with ikba_human NFKBIA

Row | Variant | effect of a mutation on the interaction
6 | K44A | decreasing interaction

Variants of: B4
Details: with ikkb_human IKBKB

Row | Variant | effect of a mutation on the interaction
7 | K429A;K430A | disrupting interaction
